Numbered stars: 1 amine (or outer) side, 2 acyl side, 3 side chain; on linkers, the order of the positions; unused ones are H or OH. Bridge positions count the residues as written; N and C are the ends. Square brackets hold non-standard residues; d marks the D form. Side chains are listed from the residue outwards. Ends that are not written are not given here. * marks the point of attachment. C18 diacid = O=C(O)CCCCCCCCCCCCCCCCC(=O)*; γGlu = O=C(O)[C@H](CCC(=O)[*:2])N[*:1]; Aib = CC(C)(N)C(=O)O
T1: human calcitonin receptor (human, UniProt P30988 25-474)
T1 sequence (looked up): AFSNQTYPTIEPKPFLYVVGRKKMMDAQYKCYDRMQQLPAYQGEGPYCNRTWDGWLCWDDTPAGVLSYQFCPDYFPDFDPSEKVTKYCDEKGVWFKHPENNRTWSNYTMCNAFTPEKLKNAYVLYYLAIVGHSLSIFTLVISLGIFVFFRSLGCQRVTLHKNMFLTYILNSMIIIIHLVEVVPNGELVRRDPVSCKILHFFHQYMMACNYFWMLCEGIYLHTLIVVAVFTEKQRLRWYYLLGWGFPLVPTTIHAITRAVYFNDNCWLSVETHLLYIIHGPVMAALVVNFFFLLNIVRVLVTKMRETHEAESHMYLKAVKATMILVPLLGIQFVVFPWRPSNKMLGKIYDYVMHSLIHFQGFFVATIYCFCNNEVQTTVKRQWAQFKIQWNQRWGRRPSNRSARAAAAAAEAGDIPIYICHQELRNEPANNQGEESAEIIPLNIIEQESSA

T2: human amylin receptor (calcitonin receptor co-expressed with receptor activity modifying protein, RAMP3) (human, UniProt P30988 25-474; O60896 24-148)
T2 sequence (looked up) 1: T1 sequence (looked up)
T2 sequence (looked up) 2: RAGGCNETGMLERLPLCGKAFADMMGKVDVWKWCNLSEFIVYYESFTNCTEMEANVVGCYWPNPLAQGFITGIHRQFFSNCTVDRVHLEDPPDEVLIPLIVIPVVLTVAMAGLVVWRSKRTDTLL

B1: Peptide 59 (SEQ ID NO: 59) (peptide)
peptide: K([γGlu-C18 diacid])CNTATCATQRLANFLVHSS[Aib]NFGPI[dL]PPTNVGSNTY-NH2
modifications: disulfide 2-7; N-terminus assumed
SMILES: CC[C@H](C)[C@H](NC(=O)[C@@H]1CCCN1C(=O)CNC(=O)[C@H](Cc1ccccc1)NC(=O)[C@H](CC(N)=O)NC(=O)C(C)(C)NC(=O)[C@H](CO)NC(=O)[C@H](CO)NC(=O)[C@H](Cc1c[nH]cn1)NC(=O)[C@@H](NC(=O)[C@H](CC(C)C)NC(=O)[C@H](Cc1ccccc1)NC(=O)[C@H](CC(N)=O)NC(=O)[C@H](C)NC(=O)[C@H](CC(C)C)NC(=O)[C@H](CCCNC(=N)N)NC(=O)[C@H](CCC(N)=O)NC(=O)[C@@H](NC(=O)[C@H](C)NC(=O)[C@@H]1CSSC[C@H](NC(=O)[C@@H](N)CCCCNC(=O)CC[C@H](NC(=O)CCCCCCCCCCCCCCCCC(=O)O)C(=O)O)C(=O)N[C@@H](CC(N)=O)C(=O)N[C@@H]([C@@H](C)O)C(=O)N[C@@H](C)C(=O)N[C@@H]([C@@H](C)O)C(=O)N1)[C@@H](C)O)C(C)C)C(=O)N[C@H](CC(C)C)C(=O)N1CCC[C@H]1C(=O)N1CCC[C@H]1C(=O)N[C@H](C(=O)N[C@@H](CC(N)=O)C(=O)N[C@H](C(=O)NCC(=O)N[C@@H](CO)C(=O)N[C@@H](CC(N)=O)C(=O)N[C@H](C(=O)N[C@@H](Cc1ccc(O)cc1)C(N)=O)[C@@H](C)O)C(C)C)[C@@H](C)O
B2: Peptide 61 (SEQ ID NO: 61) (peptide)
peptide: K([γGlu-C18 diacid])CNTATCATQRLANFLVHSS[Aib]NFGP[dI]LPPTNVGSNTY-NH2
modifications: disulfide 2-7; N-terminus assumed
SMILES: CC[C@@H](C)[C@@H](NC(=O)[C@@H]1CCCN1C(=O)CNC(=O)[C@H](Cc1ccccc1)NC(=O)[C@H](CC(N)=O)NC(=O)C(C)(C)NC(=O)[C@H](CO)NC(=O)[C@H](CO)NC(=O)[C@H](Cc1c[nH]cn1)NC(=O)[C@@H](NC(=O)[C@H](CC(C)C)NC(=O)[C@H](Cc1ccccc1)NC(=O)[C@H](CC(N)=O)NC(=O)[C@H](C)NC(=O)[C@H](CC(C)C)NC(=O)[C@H](CCCNC(=N)N)NC(=O)[C@H](CCC(N)=O)NC(=O)[C@@H](NC(=O)[C@H](C)NC(=O)[C@@H]1CSSC[C@H](NC(=O)[C@@H](N)CCCCNC(=O)CC[C@H](NC(=O)CCCCCCCCCCCCCCCCC(=O)O)C(=O)O)C(=O)N[C@@H](CC(N)=O)C(=O)N[C@@H]([C@@H](C)O)C(=O)N[C@@H](C)C(=O)N[C@@H]([C@@H](C)O)C(=O)N1)[C@@H](C)O)C(C)C)C(=O)N[C@@H](CC(C)C)C(=O)N1CCC[C@H]1C(=O)N1CCC[C@H]1C(=O)N[C@H](C(=O)N[C@@H](CC(N)=O)C(=O)N[C@H](C(=O)NCC(=O)N[C@@H](CO)C(=O)N[C@@H](CC(N)=O)C(=O)N[C@H](C(=O)N[C@@H](Cc1ccc(O)cc1)C(N)=O)[C@@H](C)O)C(C)C)[C@@H](C)O
B3: Peptide 60 (SEQ ID NO: 60) (peptide)
peptide: K([γGlu-C18 diacid])CNTATCATQRLANFLVHSS[Aib]NFGPIL[dP]PTNVGSNTY-NH2
modifications: disulfide 2-7; N-terminus assumed
SMILES: CC[C@H](C)[C@H](NC(=O)[C@@H]1CCCN1C(=O)CNC(=O)[C@H](Cc1ccccc1)NC(=O)[C@H](CC(N)=O)NC(=O)C(C)(C)NC(=O)[C@H](CO)NC(=O)[C@H](CO)NC(=O)[C@H](Cc1c[nH]cn1)NC(=O)[C@@H](NC(=O)[C@H](CC(C)C)NC(=O)[C@H](Cc1ccccc1)NC(=O)[C@H](CC(N)=O)NC(=O)[C@H](C)NC(=O)[C@H](CC(C)C)NC(=O)[C@H](CCCNC(=N)N)NC(=O)[C@H](CCC(N)=O)NC(=O)[C@@H](NC(=O)[C@H](C)NC(=O)[C@@H]1CSSC[C@H](NC(=O)[C@@H](N)CCCCNC(=O)CC[C@H](NC(=O)CCCCCCCCCCCCCCCCC(=O)O)C(=O)O)C(=O)N[C@@H](CC(N)=O)C(=O)N[C@@H]([C@@H](C)O)C(=O)N[C@@H](C)C(=O)N[C@@H]([C@@H](C)O)C(=O)N1)[C@@H](C)O)C(C)C)C(=O)N[C@@H](CC(C)C)C(=O)N1CCC[C@@H]1C(=O)N1CCC[C@H]1C(=O)N[C@H](C(=O)N[C@@H](CC(N)=O)C(=O)N[C@H](C(=O)NCC(=O)N[C@@H](CO)C(=O)N[C@@H](CC(N)=O)C(=O)N[C@H](C(=O)N[C@@H](Cc1ccc(O)cc1)C(N)=O)[C@@H](C)O)C(C)C)[C@@H](C)O
B4: Peptide 62 (SEQ ID NO: 62) (peptide)
peptide: K([γGlu-C18 diacid])CNTATCATQRLANF[dL]VHSS[Aib]NFGPILPPTNVGSNTY-NH2
modifications: disulfide 2-7; N-terminus assumed
SMILES: CC[C@H](C)[C@H](NC(=O)[C@@H]1CCCN1C(=O)CNC(=O)[C@H](Cc1ccccc1)NC(=O)[C@H](CC(N)=O)NC(=O)C(C)(C)NC(=O)[C@H](CO)NC(=O)[C@H](CO)NC(=O)[C@H](Cc1c[nH]cn1)NC(=O)[C@@H](NC(=O)[C@@H](CC(C)C)NC(=O)[C@H](Cc1ccccc1)NC(=O)[C@H](CC(N)=O)NC(=O)[C@H](C)NC(=O)[C@H](CC(C)C)NC(=O)[C@H](CCCNC(=N)N)NC(=O)[C@H](CCC(N)=O)NC(=O)[C@@H](NC(=O)[C@H](C)NC(=O)[C@@H]1CSSC[C@H](NC(=O)[C@@H](N)CCCCNC(=O)CC[C@H](NC(=O)CCCCCCCCCCCCCCCCC(=O)O)C(=O)O)C(=O)N[C@@H](CC(N)=O)C(=O)N[C@@H]([C@@H](C)O)C(=O)N[C@@H](C)C(=O)N[C@@H]([C@@H](C)O)C(=O)N1)[C@@H](C)O)C(C)C)C(=O)N[C@@H](CC(C)C)C(=O)N1CCC[C@H]1C(=O)N1CCC[C@H]1C(=O)N[C@H](C(=O)N[C@@H](CC(N)=O)C(=O)N[C@H](C(=O)NCC(=O)N[C@@H](CO)C(=O)N[C@@H](CC(N)=O)C(=O)N[C@H](C(=O)N[C@@H](Cc1ccc(O)cc1)C(N)=O)[C@@H](C)O)C(C)C)[C@@H](C)O
B5: Peptide 63 (SEQ ID NO: 63) (peptide)
peptide: K([γGlu-C18 diacid])CNTATCATQRLANFLVHSS[Aib]NFGPILPPTRVGSNTY-NH2
modifications: disulfide 2-7; N-terminus assumed
SMILES: CC[C@H](C)[C@H](NC(=O)[C@@H]1CCCN1C(=O)CNC(=O)[C@H](Cc1ccccc1)NC(=O)[C@H](CC(N)=O)NC(=O)C(C)(C)NC(=O)[C@H](CO)NC(=O)[C@H](CO)NC(=O)[C@H](Cc1c[nH]cn1)NC(=O)[C@@H](NC(=O)[C@H](CC(C)C)NC(=O)[C@H](Cc1ccccc1)NC(=O)[C@H](CC(N)=O)NC(=O)[C@H](C)NC(=O)[C@H](CC(C)C)NC(=O)[C@H](CCCNC(=N)N)NC(=O)[C@H](CCC(N)=O)NC(=O)[C@@H](NC(=O)[C@H](C)NC(=O)[C@@H]1CSSC[C@H](NC(=O)[C@@H](N)CCCCNC(=O)CC[C@H](NC(=O)CCCCCCCCCCCCCCCCC(=O)O)C(=O)O)C(=O)N[C@@H](CC(N)=O)C(=O)N[C@@H]([C@@H](C)O)C(=O)N[C@@H](C)C(=O)N[C@@H]([C@@H](C)O)C(=O)N1)[C@@H](C)O)C(C)C)C(=O)N[C@@H](CC(C)C)C(=O)N1CCC[C@H]1C(=O)N1CCC[C@H]1C(=O)N[C@H](C(=O)N[C@@H](CCCNC(=N)N)C(=O)N[C@H](C(=O)NCC(=O)N[C@@H](CO)C(=O)N[C@@H](CC(N)=O)C(=O)N[C@H](C(=O)N[C@@H](Cc1ccc(O)cc1)C(N)=O)[C@@H](C)O)C(C)C)[C@@H](C)O
B6: Peptide 58 (SEQ ID NO: 58) (peptide)
peptide: K([γGlu-C18 diacid])KCNTATCATQRLANFLVHSS[Aib]NFGPILPPTNVGSNTP-NH2
modifications: disulfide 3-8; N-terminus assumed
SMILES: CC[C@H](C)[C@H](NC(=O)[C@@H]1CCCN1C(=O)CNC(=O)[C@H](Cc1ccccc1)NC(=O)[C@H](CC(N)=O)NC(=O)C(C)(C)NC(=O)[C@H](CO)NC(=O)[C@H](CO)NC(=O)[C@H](Cc1c[nH]cn1)NC(=O)[C@@H](NC(=O)[C@H](CC(C)C)NC(=O)[C@H](Cc1ccccc1)NC(=O)[C@H](CC(N)=O)NC(=O)[C@H](C)NC(=O)[C@H](CC(C)C)NC(=O)[C@H](CCCNC(=N)N)NC(=O)[C@H](CCC(N)=O)NC(=O)[C@@H](NC(=O)[C@H](C)NC(=O)[C@@H]1CSSC[C@H](NC(=O)[C@H](CCCCN)NC(=O)[C@@H](N)CCCCNC(=O)CC[C@H](NC(=O)CCCCCCCCCCCCCCCCC(=O)O)C(=O)O)C(=O)N[C@@H](CC(N)=O)C(=O)N[C@@H]([C@@H](C)O)C(=O)N[C@@H](C)C(=O)N[C@@H]([C@@H](C)O)C(=O)N1)[C@@H](C)O)C(C)C)C(=O)N[C@@H](CC(C)C)C(=O)N1CCC[C@H]1C(=O)N1CCC[C@H]1C(=O)N[C@H](C(=O)N[C@@H](CC(N)=O)C(=O)N[C@H](C(=O)NCC(=O)N[C@@H](CO)C(=O)N[C@@H](CC(N)=O)C(=O)N[C@H](C(=O)N1CCC[C@H]1C(N)=O)[C@@H](C)O)C(C)C)[C@@H](C)O

The binders below were run against T1, human calcitonin receptor (assay: cell-based or functional assay).

| Binder | EC50 (cAMP production) |
| --- | --- |
| B1 | 809 pM |
| B2 | 654 pM |
| B3 | 1030 pM |
| B4 | 7250 pM |
| B5 | 375 pM |
| B6 | 65 pM |

Each binder was assayed against T2, human amylin receptor (calcitonin …) (assay: cell-based or functional assay).

| Binder | EC50 (cAMP production) | Ratio (EC50 hCTR / EC50 hAMYR3) |
| --- | --- | --- |
| B1 | 157 pM | 5 |
| B2 | 99 pM | 7 |
| B3 | 96 pM | 11 |
| B4 | 167 pM | 43 |
| B5 | 76 pM | 5 |
| B6 | 71 pM | 1 |

— patent US20220204580A1 (AstraZeneca / MedImmune, published 2022)
